Laboratory results: US7244836 (Genentech, dated 2007)

B1: GAL4 DNA-binding domain fused to the intracellular domain of human TNF-R2 (other, yeast;human, UniProt P04386 1-147, looked up)
chain: MKLLSSIEQACDICRLKKLKCSKEKPKCAKCLKNNWECRYSPKTKRSPLTRAHLTEVESRLERLEQLFLLIFPREDLDMILKMDSLQDIKALLTGLFVQDNVNKDAVTDRLASVETDMPLTLRQHRISATSSSEESSNKGQRQLTVSKKKPLCLQREAKVPHLPADKARGTQGPEQQHLLITAPSSSSSSLESSASALDRRAPTRNQPQAPGVEASGAGEARASTGSSDSSPGGHGTQVNVTCIVNVCSSSDHSSQCSSQASSTMGDTDSSPSESPKDEQVPFSKEECAFRSQLETPETLLGSTEEKPLPLGVPDAGMKPS
notes: also called GAL4(DB)-hTNF-R2icd; pPC97-hTNF-R2icd
B2: GAL4 DNA-binding domain fused to the intracellular domain of the murine TNF-R2 (other, yeast;murine, UniProt P04386 1-147, looked up)
chain: MKLLSSIEQACDICRLKKLKCSKEKPKCAKCLKNNWECRYSPKTKRSPLTRAHLTEVESRLERLEQLFLLIFPREDLDMILKMDSLQDIKALLTGLFVQDNVNKDAVTDRLASVETDMPLTLRQHRISATSSSEESSNKGQRQLTVSKKKPSCLQRDAKVPHVPDEKSQDAVGLEQQHLLTTAPSSSSSSLESSASAGDRRAPPGGHPQARVMAEAQGFQEARASSRISDSSHGSHGTHVNVTCIVNVCSSSDHSSQCSSQASATVGDPDAKPSASPKDEQVPFSQEECPSQSPCETTETLQSHEKPLPLGVPDMGMKPSQAGWFDQIAVKVA
notes: also called GAL4(DB)-mTNF-R2icd; pPC97-mTNF-R2icd
B3: GST-hTNF-R2icd fusion protein (other, human, UniProt P20333 288-461, looked up)
chain: KKKPLCLQREAKVPHLPADKARGTQGPEQQHLLITAPSSSSSSLESSASALDRRAPTRNQPQAPGVEASGAGEARASTGSSDSSPGGHGTQVNVTCIVNVCSSSDHSSQCSSQASSTMGDTDSSPSESPKDEQVPFSKEECAFRSQLETPETLLGSTEEKPLPLGVPDAGMKPS
notes: domain: intracellular domain; Expressed in E. coli; also called pGST-hTNF-R2icd; wild type (wt) GST-hTNF-R2icd; not shown: glutathione S-transferase as encoded by vector pGEX-2TK (Pharmacia), with the vector's linker up to the BamHI site
B4: human type 2 TNF receptor, wild type full length (receptor, UniProt P20333 23-461, looked up)
chain: LPAQVAFTPYAPEPGSTCRLREYYDQTAQMCCSKCSPGQHAKVFCTKTSDTVCDSCEDSTYTQLWNWVPECLSCGSRCSSDQVETQACTREQNRICTCRPGWYCALSKQEGCRLCAPLRKCRPGFGVARPGTETSDVVCKPCAPGTFSNTTSSTDICRPHQICNVVAIPGNASMDAVCTSTSPTRSMAPGAVHLPQPVSTRSQHTQPTPEPSTAPSTSFLLPMGPSPPAEGSTGDFALPVGLIVGVTALGLLIIGVVNCVIMTQVKKKPLCLQREAKVPHLPADKARGTQGPEQQHLLITAPSSSSSSLESSASALDRRAPTRNQPQAPGVEASGAGEARASTGSSDSSPGGHGTQVNVTCIVNVCSSSDHSSQCSSQASSTMGDTDSSPSESPKDEQVPFSKEECAFRSQLETPETLLGSTEEKPLPLGVPDAGMKPS
notes: whole, on cells; Whole receptor made by transfected cells, assayed after detergent lysis, not on intact cells; also called hTNF-R2; 75-80 kd hTNF-R2

Columns and labels:
[1] = target: T1, GAL4(TA)-TRAF1 co-expressed with directly expressed TRAF2 (yeast; murine, UniProt P39428 2-409; P39429 1-501, limits assumed); assay: yeast three-component assay with TRAF2 (no NLS) expressed directly; growth on trp- leu- his- medium with 20 mM 3-aminotriazole
T1 construct: also called GAL4(TA)-TRAF1 + TRAF2; pPC86TRAF1 with pPCTRAF2
T1 sequence 1: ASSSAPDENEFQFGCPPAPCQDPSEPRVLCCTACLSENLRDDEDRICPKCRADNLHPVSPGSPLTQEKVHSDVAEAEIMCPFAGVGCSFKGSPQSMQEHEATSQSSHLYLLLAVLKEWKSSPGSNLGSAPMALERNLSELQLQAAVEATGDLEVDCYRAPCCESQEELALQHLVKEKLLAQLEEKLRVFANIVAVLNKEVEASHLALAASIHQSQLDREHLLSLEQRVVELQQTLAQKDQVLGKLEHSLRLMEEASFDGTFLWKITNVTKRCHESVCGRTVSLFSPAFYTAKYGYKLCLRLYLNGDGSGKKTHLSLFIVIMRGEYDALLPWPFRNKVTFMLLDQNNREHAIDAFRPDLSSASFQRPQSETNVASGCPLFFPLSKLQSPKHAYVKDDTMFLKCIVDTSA
T1 sequence 2: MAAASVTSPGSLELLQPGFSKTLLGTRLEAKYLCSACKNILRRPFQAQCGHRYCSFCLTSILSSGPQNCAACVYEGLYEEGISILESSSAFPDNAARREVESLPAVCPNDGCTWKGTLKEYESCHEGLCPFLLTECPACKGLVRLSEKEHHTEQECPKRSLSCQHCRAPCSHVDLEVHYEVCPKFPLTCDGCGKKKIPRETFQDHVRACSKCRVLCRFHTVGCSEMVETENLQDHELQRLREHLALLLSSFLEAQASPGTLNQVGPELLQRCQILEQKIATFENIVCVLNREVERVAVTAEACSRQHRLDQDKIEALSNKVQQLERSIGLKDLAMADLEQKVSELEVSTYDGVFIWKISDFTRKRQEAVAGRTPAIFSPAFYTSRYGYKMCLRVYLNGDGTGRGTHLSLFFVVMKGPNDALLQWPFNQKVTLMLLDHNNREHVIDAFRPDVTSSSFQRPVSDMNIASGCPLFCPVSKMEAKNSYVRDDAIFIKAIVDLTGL
Experimental: HF7c cells were sequentially transformed with plasmids (see text) encoding the indicated GAL4 DNA-binding domain (DB) fusion proteins, the GAL4 transcriptional activation domain (TA) TRAF1 fusion protein, and TRAF2 or TRAF2 fused to the simian virus 40 large tumor antigen nuclear localization signal (NLS). The final transformation mixtures were plated onto synthetic dextrose plates lacking trp, leu, his and containing 20 mM 3-aminotriazole. Plus signs indicate growth of transformed yeast colonies on the respective plates. *See Table 2.

[2] = target: T2, TNF Receptor Associated Factor 1, purified from CT6 cells (murine, UniProt P39428 1-409, N-terminally blocked (so in the source); nature of the block not stated)); assay: band eluted specifically from the GST-hTNF-R2icd affinity column and identified by peptide sequencing; association may be indirect (through TRAF2)
T2 construct: also called TRAF1; protein band at 45-50 kd
T2 sequence: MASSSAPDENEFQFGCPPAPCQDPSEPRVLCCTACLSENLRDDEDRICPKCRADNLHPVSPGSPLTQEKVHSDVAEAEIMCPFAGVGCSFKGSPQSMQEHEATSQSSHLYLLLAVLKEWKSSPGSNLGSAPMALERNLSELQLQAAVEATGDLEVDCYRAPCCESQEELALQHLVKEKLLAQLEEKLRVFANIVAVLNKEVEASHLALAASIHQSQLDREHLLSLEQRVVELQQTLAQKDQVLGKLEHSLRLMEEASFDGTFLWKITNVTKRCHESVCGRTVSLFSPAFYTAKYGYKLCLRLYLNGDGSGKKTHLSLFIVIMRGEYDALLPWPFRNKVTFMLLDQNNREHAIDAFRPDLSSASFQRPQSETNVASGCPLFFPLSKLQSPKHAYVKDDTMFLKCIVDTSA
Experimental: For large scale purification of hTNF-R2icd associated factors 60 l of CT6 cells (3×10^10 cells) were harvested and washed twice with cold PBS. All subsequent operations were carried out at 4° C. The cells were lysed by adding 120 ml of 0.1% NP40 lysis buffer containing 100 mM NaCl and rocked gently for 30 min. Insoluble material was removed by centrifugation for 10 min at 10,000×g. The supernatant was then centrifuged at 100,000×g for 1 hr and dialyzed against lysis buffer containing 500 mM NaCl. All subsequent purification steps were carried out in lysis buffer containing 500 mM NaCl. The cell lysate was passed through a 15 ml glutathione-agarose GST-hTNF-R2icd(-37) fusion protein preabsorption column. The flow-through was applied to a 0.3 ml Affigel10/15 GST-hTNF-R2icd fusion protein affinity column. For control, the lysate was run through a similar Affigel10/15 GST-hTNF-R2icd(-37) fusion protein affinity column in parallel. After extensive washing, proteins bound to the resins were eluted with five column volumes of ImmunoPure Gentle Ag1Ab Elution Buffer (Pierce) containing, 0.1 M DTT, precipitated with Methanol/Chloroform and resuspended in SDS sample buffer containing 5% SDS. One tenth of the material was separated by SDS-PAGE under reducing conditions and visualized by silver staining (FIG. 9).

GST-TRAF2 fusion protein = target: T3, GST-TRAF2 fusion protein (murine, UniProt P39429 1-501); assay: GST-TRAF2 beads incubated with 293/TNF-R2 cell lysate; SDS-PAGE and Western blot with anti-hTNF-R2 antibody
T3 construct: Expressed in E. coli in the presence of 1 mM ZnCl2; also called GST-TRAF2 fusion protein beads; not shown: glutathione S-transferase as encoded by vector pGEX-2TK, with the vector's linker
T3 sequence: T1 sequence 2
Experimental: FIG. 16. […] Reactions were analyzed by SDS-PAGE and Western blot analysis using anti-human TNF-R1 monoclonal antibody 986 (0.5 μg/ml) and anti-human TNF-R2 monoclonal antibody 1036 (0.5 μg/ml). An arrow indicates the 75-80 kd hTNF-R2 band that is coprecipitated specifically with the GST-TRAF2 fusion protein. Molecular weight markers are indicated on the right in kd.
An expression vector encoding a GST-TRAF2 fusion protein was constructed. The TRAF2 coding region was amplified from pPC86TRAF2 by PCR with Pfu DNA polymerase as described above using the oligonucleotide primers 5'-[…] TTGT-3' (SEQ. ID. NO: 53) and 5'-[…]-3' (SEQ. ID. NO: 54). The amplified 1.6 kb DNA fragment was blunt-ended using *E. coli* DNA polymerase I, digested with BamHI and cloned into BamHI/SmaI-digested pGEX-2TK vector. The GST-TRAF2 fusion protein was expressed in the presence of 1 mM ZnCL_2 and purified as described above. […] Primary antibodies directed against the extracellular domains of hTNF-R2 and hTNF-R1 (as a control) were used at a concentration of 0.5 µg/ml and the secondary sheep anti-mouse horseradish peroxidase conjugate (Amersham) at a dilution of 1:6000.

Binder | binding result [1] | also measured
B1 | binds | –
B2 | binds | –
B3 | – | binding result [2]: binds
B4 | – | binding result (GST-TRAF2 fusion protein): binds
